The target in the experiment is calmodulin (full-length wild-type CaM) (human, UniProt P0DP23 1-149). In words: circular dichroism.

B1: pCaN, peptide encompassing the CaM-binding domain of calcineurin A (residues 391-414) (peptide)
peptide: not shown
On to B1, for which the binding result is given as “binds”.

(Values after paper PMC4900146 (Biochemistry, 2016).)
